Measured values reported in article PMC8519427, “High affinity associations with α-SNAP enable calcium entry via Orai1 channels” (PLoS ONE, 2021).

Target: T1, human α-SNAP with an Avitag and a C-terminal 6xHis tag (human, UniProt P54920 1-295, biotin (in vitro biotinylated using BirA ligase; Avitag))
T1 construct: alpha-soluble NSF attachment protein (α-SNAP), human, amplified from HEK 293 cDNA; The methods describe a single preparation; The biotinylated protein was captured on streptavidin tips for BLI; also called biotinylated α-SNAP; Avi-Tagged human α-SNAP; source: E. coli LEMO21(DE3), pET28b, purified; in vitro biotinylated with BirA ligase; not shown: Avitag, C-terminal, kept
T1 sequence (looked up): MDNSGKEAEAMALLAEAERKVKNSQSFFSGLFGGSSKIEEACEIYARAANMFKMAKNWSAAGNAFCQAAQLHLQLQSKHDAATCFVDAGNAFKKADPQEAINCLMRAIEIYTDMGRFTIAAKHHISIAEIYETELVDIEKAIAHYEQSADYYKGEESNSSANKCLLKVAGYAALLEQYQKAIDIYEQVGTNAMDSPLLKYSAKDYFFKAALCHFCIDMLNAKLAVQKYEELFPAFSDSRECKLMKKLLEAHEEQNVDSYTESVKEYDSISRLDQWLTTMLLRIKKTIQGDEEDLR
Assay: pull-down; MBP- or GST-tagged Stim1 or Orai1 fragments immobilised on amylose or glutathione resin, incubated with 20–50 nM α-SNAP in Ringer's buffer with 0.1% NP-40 and 2 mM imidazole, 1 hr at 4°C; washed thrice; Western blot for α-SNAP
Conditions: both partners purified

B1: MBP-Stim1 408–442 (CC3 domain) (domain or fragment, human, UniProt Q13586 408-442, looked up)
chain: KILTAKQALSEVTAALRERLHRWQQIEILCGFQIV
notes: Cloned into pMAL-c5X in frame with MBP; also called Stim1-CC3; source: E. coli LEMO21(DE3), purified by immobilizing on amylose resin
B1: binds.
